Laboratory results as given in PMC7719688.

Biological target: T1, ArcA-His6 (acetyl phosphate present or absent) (Escherichia coli K1 Rs218 (O18:H7:K1)) (UniProt P0A9Q1)
T1 sequence: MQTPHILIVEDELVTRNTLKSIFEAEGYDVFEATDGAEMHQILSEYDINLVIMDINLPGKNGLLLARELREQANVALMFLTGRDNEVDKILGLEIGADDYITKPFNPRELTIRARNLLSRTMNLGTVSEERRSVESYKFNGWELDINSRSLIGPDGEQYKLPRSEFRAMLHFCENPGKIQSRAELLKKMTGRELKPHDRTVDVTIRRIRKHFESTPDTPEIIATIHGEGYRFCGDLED
Assay: EMSA
Conditions: 10 mM Tris-HCl pH 7.4, 50 mM KCl, 0.1 mM EDTA, 0.2 mM DTT

Sequence	binding ([…])	binding (+/- 30 mM acetyl phosphate, 37 C 30 min, 6% PAGE in 0.5x TBE, GelRed stain)
ATTTGGTTGTAACACGGCGTATGGCACATGCGTCGTTAGCGGTCTGGGGACGTTAAAGGGGACAATCCACTCCTTGCTCGAGCAGACAAACCAGGTAGCCGGAATGTGCAAGTCAATGAGGATGCTGATAAGACGCCTAACCAGCGTGGCGATTCGGTTTGACGCCTGGGAAGAGACCAGGGTGCAACGATGAGGGCATTTATGGAACCGCGACAAAGTGTGGTGCCGTAACTGGCTAAGTGCTCTCAGC (double strand) [sRNA-17 promoter (PsRNA-17)]	binds	
ACGAACTGTTCACCGCCACTCGCGGTCAGGGCGCACAGCTGAACGGCTACCGTCTGCGCGGCAGCACCGCTCGCGATCTCGACGGTACTATTCTGGCGACCGGCTTCCCGTTCAAAGCAAAACAGTACGCCACTACCTACATCAACATCGTCGGCA (double strand) [suhB gene fragment]		no binding
